Several values for one entry are separate records, joined by “and”; a condition that tells them apart may be missing. Equal values may be shown once. Read-outs that look alike come from different tables or passages of the source.
Key:
[1] = molecular target: COV2-RBD (rpk9) B.1.1.529 (BA.1) (SARS-CoV-2)
[2] = molecular target: COV2-RBD (rpk9) Wuhan-Hu-1 (WT) (SARS-CoV-2)
[3] = molecular target: COV2-RBD (rpk9) Wuhan-Hu-1 (WT) (SARS-CoV-2); remark: listed apart in the source
[4] = molecular target: COV2-RBD (rpk9) B.1.1.529 (BA.1) (SARS-CoV-2); experiment: Gyrolab immunoassay, reference titration, relative binding (%)
[5] = molecular target: SARS-CoV-2 spike (S) glycoprotein, Omicron BA.1 (SARS-CoV-2) (UniProt P0DTC2); experiment: cell-based or functional assay
[6] = molecular target: SARS-CoV-2 spike (S) glycoprotein, Omicron BA.1.1 (SARS-CoV-2) (UniProt P0DTC2); experiment: cell-based or functional assay
[7] = molecular target: SARS-CoV-2 spike (S) glycoprotein, Omicron BA.2 (SARS-CoV-2) (UniProt P0DTC2); experiment: cell-based or functional assay
[8] = molecular target: COV2-RBD (rpk9) B.1.1.529 (BA.1) (SARS-CoV-2); experiment: Gyrolab full-curve immunoassay (LLNL Gyros) on RBD
[9] = molecular target: COV2-RBD (rpk9) Wuhan-Hu-1 (WT) (SARS-CoV-2); experiment: Gyrolab full-curve immunoassay (LLNL Gyros) on RBD
[10] = molecular target: SARS-CoV-2 Spike-RBD, Delta (SARS-CoV-2) (UniProt P0DTC2); experiment: Gyrolab immunoassay, reference titration, relative binding (%)
[11] = molecular target: COV2-RBD (rpk9) B.1.1.529 (BA.1) (SARS-CoV-2); experiment: Gyrolab immunoassay, IgG titrated on Spike-RBD, relative binding (FI)
[12] = molecular target: COV2-RBD (rpk9) Wuhan-Hu-1 (WT) (SARS-CoV-2); experiment: as above
[13] = molecular target: COV2-RBD (rpk9) B.1.1.529 (BA.1) (SARS-CoV-2); experiment: Gyros full-curve immunoassay, mAb titrated on RBD, relative binding (FI)
[14] = molecular target: COV2-RBD (rpk9) Wuhan-Hu-1 (WT) (SARS-CoV-2); experiment: as above
[15] = molecular target: SARS-CoV-2 Spike-RBD, Delta (SARS-CoV-2) (UniProt P0DTC2); experiment: as above
[16] = molecular target: SARS-CoV-2 spike (S) glycoprotein, Delta (B.1.617.2) (SARS-CoV-2) (UniProt P0DTC2); experiment: cell-based or functional assay
[17] = molecular target: SARS-CoV-2 spike (S) glycoprotein, Omicron BA.4 (SARS-CoV-2) (UniProt P0DTC2); experiment: cell-based or functional assay
[18] = molecular target: SARS-CoV-2 spike (S) glycoprotein, Omicron BA.5.5 (SARS-CoV-2) (UniProt P0DTC2); experiment: cell-based or functional assay

Q: What does the source list for COV2-2130 (antibody)?
A: EC50 [1]: 2.77 µg/mL and 1.75 µg/mL; EC50 [2]: 1.72 µg/mL and 0.675 µg/mL; EC50 (read off the curve) [3]: 0.8 µg/mL; EC50 (read off the curve) [4]: 2 µg/mL

Q: What does the source list for S309 (antibody)?
A: EC50 [1]: 17.2 µg/mL; EC50 [2]: 5.76 µg/mL; EC50 (read off the curve) [3]: 2 µg/mL; pseudovirus neutralization IC50 [5]: 0.0632 µg/mL; pseudovirus neutralization IC50 [6]: 0.0332 µg/mL; pseudovirus neutralization IC50 [7]: 0.109 µg/mL; AUC(logC) [8]: 53.2; AUC(logC) [9]: 60.6; EC50 (read off the curve) [4]: 6 µg/mL; EC50 (read off the curve) [10]: 2 µg/mL; EC50 (read off the curve) [11]: 4 µg/mL; EC50 (read off the curve) [12]: 2 µg/mL; EC50 (read off the curve) [13]: 4 µg/mL; EC50 (read off the curve) [14]: 2 µg/mL; EC50 (read off the curve) [15]: 2 µg/mL

Q: Which results are given for rDENV-2D22 (antibody)?
A: authentic virus neutralization IC50 (FRNT) [16]: > 10 µg/mL; authentic virus neutralization IC50 (FRNT) [5]: > 10 µg/mL; authentic virus neutralization IC50 (FRNT) [6]: > 10 µg/mL; normalized pseudoneutralization IC50 [6]: > 10 µg/mL; authentic virus neutralization IC50 (FRNT) [17]: > 10 µg/mL; normalized pseudoneutralization IC50 [17]: > 10 µg/mL; authentic virus neutralization IC50 (FRNT) [18]: > 10 µg/mL

Q: For rS2K146 (antibody), which normalized pseudoneutralization IC50 [5] is on record?
A: 0.00438 µg/mL

Q: And the normalized pseudoneutralization IC50 [6]?
A: 0.00209 µg/mL

Q: What about the normalized pseudoneutralization IC50 [7] of the same substance?
A: 0.00336 µg/mL

Q: What about the normalized pseudoneutralization IC50 [17] of the same substance?
A: 0.036 µg/mL
